# Test: yeast display, Sf9 membrane polyspecificity reagent, FACS + sequencing; frameworks hold sequencing errors
# Summary of the method: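 Synthetic nanobody libraries on Saccharomyces cerevisiae BJ5465 were galactose-induced for 36–48 hours, stained 1 hour at 4 °C with 10% biotinylated, detergent-solubilized Sf9 membrane reagent and enriched on streptavidin microbeads. FACS then separated cells into low and high (top ~1%) gates by anti-HA (expression) and streptavidin (reagent binding) fluorescence. Genes were colony-PCR amplified, MiSeq 2 × 250 sequenced and CDR-length filtered. A clone's polyreactivity label is that of its gate of origin.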
row,Sequence,polyreactivity (PSR sort gate)
1,QVQLVESGGGLVQAGGSLRLSCAASGSTLGYYAMGWYRQAPGKERELVAAITSSDGGTYYADSVKGRFTISRDNAKNTVYLQMNSLKPEDTAVYYCAKRRYTSAFGSWYAYDYWGQGTQVNVSS,high polyreactivity
2,QVQLVESGGGLVQAGGSLRLSCAASGSTLIDNVMGWYRQAPGKERELVASITSSDGTTYADSVKGRFTISRDNAKNTVYLQMNSLKPEDTAVYYCAARPWYGTYNYWGQGTQVTVSS,low polyreactivity
3,QVQLVESGGGLVQAGGSLRLSCAASGSTLIRNDMGWYRQAPAKERELVAAINTRGTTTYYADSVKGRFTISRDNAKNTVYLQMNSLKPEDTAVYYCAAYAYSAYSPDGQRSRYYYWGQGTQVTVSS,high polyreactivity
4,QVQLVESGGGLVQAGGSLRLSCAASGSTLIRNVMGWYRQAPGKERELVAAINTRGTTTYYADSVKGRITISRDNAKNTVYLQMNSLKPEDTAVYYCAARTPHYSYGYWGQGTHVTVSS,high polyreactivity
5,QVQLVESGGGLVQAGGSLRLSCAASGSTLISYAMGSYRQAPGKERELDAAITYNGGTTHYADSVKGRLTISRDNAKNSVYLQLKSLKPEDTAVYYCAKAQGHVRVSRGLQGGRYDYWGQGTQVTVSS,low polyreactivity
6,QVQLVESGGGLVQAGGSLRLSCAASGSTLISYTMGWYRQAPGKERELVAAITSAVTTYYADSVKGRFTISRDNAKNTVYLQMNSLKPEDTAVYYCNTYPFKTLPYRYPRGDYWGQGTQVTVSS,low polyreactivity
7,QVQLVESGGGLVQAGGSLRLSCAASGSTLIVYAMGWYRQAPGKEREFVAGITVSTGSTYYADSVKGRFTISRDNAKNTVYLQMNSQKPEDTAVYYCAADIRDGWDYFLFWEDGMDYSGQGTQVTVSS,low polyreactivity
8,QVQLVESGGGLVQAGGSLRLSCAASGSTLKYNAMGWYRQAPGKEREFVASITLSACRTYYADSVKGRFTISRDNAKNTVYLQMNSLKPEDTAVYYCAARRYFSYRYDYWGQGTQVTVSS,high polyreactivity
9,QVQLVESGGGLVQAGGSLRLSCAASGSTLKYYAMGWYRQAPGKERELVARITRSSGSTYYADSVKGRFTISRDNAKNTVFLHMNSLKPEDTAVYYCNKVYKSYYCGCYDWGQGTQVTVLS,high polyreactivity
10,QVQLVESGGGLVQAGGSLRLSCAASGSTLLFYAMGWYRQAPGKEREFLATITFRGGSTYYADSVKGRFTISRDNAKNTVYLQMNSLKPEDTAVYYCNAGSRRGYYRSRPGGYCGQGTQVTVSS,high polyreactivity
11,QVQLVESGGGLVQAGGSLRLSCAASGSTLLVYAMGWYRQAPGKERELVAAITYSGTTTYYADSVKGRFTISRDNAKNTVYLQMNSLKPEDTAVYYCAKYPGYFQGNYWGQGTQVTVSS,low polyreactivity
12,QVQLVESGGGLVQAGGSLRLSCAASGSTLLYYAMGWYRQAPGKERELVAAISWRGGSTYYADSVTGRFTISRDNAKTTVYLQINSLKPEDTAVYYCARDIRLKGFRYDYWGQGTQVTVSS,high polyreactivity
13,QVQLVESGGGLVQAGGSLRLSCAASGSTLNDYAMGWYRQSPGKERELVAGINRGGSTNYADSVKGRFTISRDNAKNTVYLQMKSLKPVDTAVYYCAVRAYRWRSTLGLYYWGQGTQVTVSS,high polyreactivity
14,QVQLVESGGGLVQAGGSLRLSCAASGSTLNRNVMGWYRQAPGKEREFVAVITYGVGSTYYADSVKGRFTISRDNAKNTVYLQMNSLKPEDTAVYYCNKDPLVFDYWGQGTQVTVSS,low polyreactivity
15,QVQLVESGGGLVQAGGSLRLSCAASGSTLRGYAMGWYRQAPGKERELVARITSGGRTSYADSVKGRFTISRDNAKNTVYLQMNSLKPEDTAVYYCATRIYGWSFGSWYKYDYWGQGTQVTVSS,low polyreactivity
16,QVQLVESGGGLVQAGGSLRLSCAASGSTLRGYTMGWYRPAPGKERELVAAISWSGASTYYADSVKGRFTISRDSAKNTVYLQMNSLKPEVTAVYYCAVRYWAPYDEYGYWGQGTQVTVSS,high polyreactivity
17,QVQLVESGGGLVQAGGSLRLSCAASGSTLRGYTMGWYRQAPGKERELVAAISWSGASTYYADSVKGRFTISRDNAKNTVYLQMNSLKPEDTAVYYCYRAGRYVREYTVDYWGQGTQVTVSS,high polyreactivity
18,QVQLVESGGGLVQAGGSLRLSCAASGSTLRRHAMGWYRQAPGKERELVAAISSGGSTYYEDSVKGRFTISRDNAKNTVYLQMNSLKPEDTAVYYCAAPYSYRTWYPYGYWVQGTQVTVSS,high polyreactivity
19,QVQLVESGGGLVQAGGSLRLSCAASGSTLRRNAMGWYRQAPGKERELVAAISSGGSTYYADSVKGRFTISRDNAKNTVYLQMNSLKPEDTAVYYCNAAVPRGRYTSYYRSGWLDYWGQGTQVTVSS,high polyreactivity
20,QVQLVESGGGLVQAGGSLRLSCAASGSTLRRYAMGWYRQAPGKERELVAAISGTGSRTYYADSVKGRFSISRDNATNTVYLHMISLKREDTAVYYCNASPYGLTENDYWGQGTQVTVSS,high polyreactivity
21,QVQLVESGGGLVQAGGSLRLSCAASGSTLRRYAMGWYRQAPGKERELVAAITSRGTDTYYADSVKGRFTISRDNAKNTVYLQMNSLKPEDTAVYYCANRRGYVYYPGYDYWGQGTQVTVSS,high polyreactivity

row,Sequence,polyreactivity (PSR sort gate)
1,QVQLVESGGGLVQAGGSLRLSCAASGSTLRYYAMGSYRQAPGKERELVAAISTGGSTYYADSVKGRFTISRDNAKNTVYLQMNSLKPEDTAVYYSAADGYAHVWDYAYDYWGQGTQVTVSS,low polyreactivity
2,QVQLVESGGGLVQAGGSLRLSCAASGSTLSAYVMGWYRQAPGKERELVAAITRGGNTYYADSVKGRFTISRDNAKNTVYLQMNSLKPEDTAVYYCAARTYVSYGYYTRNYWGQGTQVTVSS,high polyreactivity
3,QVQLVESGGGLVQAGGSLRLSCAASGSTLSDNAMGWYRQAPGKERELVARISGDGSTNYADSVKGRFTISRDNAKNTVYLQMNSLKPEDTAVYYCNAGTAGIYYYGKSDYWGQGTQVTVSS,low polyreactivity
4,QVQLVESGGGLVQAGGSLRLSCAASGSTLSFNAMGWYRQAPGKERELVAGITYSGASTYYADSVKGRFTISRDNAKNTVYLQMNSLKPEDTAVYYCAADSPYQIYYYWGQGTQVTVSS,low polyreactivity
5,QVQLVESGGGLVQAGGSLRLSCAASGSTLSKYAMGWYRQAPGKEREFVAAISRSGGSTYYADSVKGRFTISRDKAKNTVYLQMNSLKPEDTAVYYCAKVLRTFSGLYYWGQGTQVTVSS,high polyreactivity
6,QVQLVESGGGLVQAGGSLRLSCAASGSTLSKYAMGWYRQAPGKERELVATISIRGGNTYYADSVKGRFTFSRDNAKNTVYLQMNSLKPEDTAVYYCAARRVNAPPSYRQKAGYDYWGQGTQVTVSS,high polyreactivity
7,QVQLVESGGGLVQAGGSLRLSCAASGSTLSQYAMGLYRQAPGKERELVAAITKSGVRTYYPDSVKGRFTISRDNAKNTVYLQMNSLKREDTAVYYCAKATTKYIAPYDYWGQGTQVTVSS,high polyreactivity
8,QVQLVESGGGLVQAGGSLRLSCAASGSTLSRYVMGWYRRAAGKERELVAAISSSGGSTYYADSVKGRFTISRDNAKNTVYLQMNSLKPEDTADYYCNVDHWRRGRSDNYWGQGTQVTVSS,high polyreactivity
9,QVQLVESGGGLVQAGGSLRLSCAASGSTLSYYAMGWYRQAPGKEREWVAAISLSVGSTYYADSVKGRFTISRDNAKNTVYLQMNSLKPEETAVYYCAADDFYSGPFRGDYWGQGTQVTVSS,low polyreactivity
10,QVQLVESGGGLVQAGGSLRLSCAASGSTLTFNAMGWYRQAPWKERELVAAISWSDTDTYYADSVKGRFTISRDNAKNTVYLQINSLKPEDTAVYYCAATLSAYEMDYWGQGTQVTVSS,low polyreactivity
11,QVQLVESGGGLVQAGGSLRLSCAASGSTLTRNTMGWYRQAPGKERELVATITRSGGSTYYADSVKGRFTISRDNAKNTVYLQMNSLKPEDTAVYYCAKRGRLRNYDYWGQGTQVTVSS,high polyreactivity
12,QVQLVESGGGLVQAGGSLRLSCAASGSTLVGYAMGWYRQAPGKERELVAAISSSGTSTYYADSVKGRFSISRDNAKNTVYLQMNSLKPEDTAVYYCSARQRGTYGYWGQGTQVTVSS,high polyreactivity
13,QVQLVESGGGLVQAGGSLRLSCAASGSTLVTNAMGWYRQAPGKERELVAAITFSGGTTYYADSVKGLFTISRDNAKNTVYLQMNSLKPEDTAVYYCAAEIWLEYVGYDYWGQGTQVTLSS,high polyreactivity
14,QVQLVESGGGLVQAGGSLRLSCAASGSTLVTYAMGWYRQAPGKERELVARIDSGGSTNYADSVKGRFTISRDNAKNTVYLQMNSLKPEDTAVYYCSAGGGFYFIWTMDYWGQGTQVTVSS,low polyreactivity
15,QVQLVESGGGLVQAGGSLRLSCAASGSTLVVNGMGWYRQAPGKERELVASISSDGSTNYADSVKGRFTISRDNAKNTVYLQMNSLKPEDTAVYYCAADEGTGQASLSSNLYDYWGQGTQVTVSS,low polyreactivity
16,QVQLVESGGGLVQAGGSLRLSCAASGSTLVYYDMGWSRQAPGKERELVATITGTDSTYYADSVKGRFTISRDNAKNTVYLQMNSLKPEDTADCAADRAASRPDYDYWGQGTQVTVSS,low polyreactivity
17,QVQLVESGGGLVQAGGSLRLSCAASGSTLWANAMGWYRQAPGKERELVAAISWRGGRTYYADSVKGRFTISRDNAKNTVYLQMNSLKPEDTAVYYCNAVSYYRPRSDYGGQGTQVTVSS,high polyreactivity
18,QVQLVESGGGLVQAGGSLRLSCAASGSTLWFNAMGWYRQAPGKERELVAAISFSSGSTYYADSVKGRFTISRDNAKNTVYLQMNSLKPEDTAVYYCAARLRWWGYDYWGQGTQVTVSS,high polyreactivity
19,QVQLVESGGGLVQAGGSLRLSCAASGSTLWWYDMGWYRQAPGKERELVAAINSGGSTNYADSVKGRFTISRDNAKNTVYLQMNSLKPEDTAVYYCNTDGEVTYDYWGQGTQVTVSS,low polyreactivity
20,QVQLVESGGGLVQAGGSLRLSCAASGSTLYAYAMGWYRQAPGKERELVAAISRSGGSTYYAYSVKGRFTISRDNAKNTVYLQMNSLKPEDTAVYYCNAYYRYFRSIYDSWGQGTQVTVSS,high polyreactivity

# Source: the nanobody polyreactivity screen of Harvey et al. (2022)
